Data taken from patent US10596234B2, “Compositions and methods to inhibit viral replication” (priority 2016, dated 2020).

Legend:
UL37C (571-1123) = target: T1, UL37C (571-1123) (Human herpesvirus 1, UniProt P10221); experiment: Cysteine labeling with electrophile and tandem mass spectrometry; type: biochemical, HSV-1; settings: for C819 labeled by CNM: 45 minutes
T1 construct: bacterial purified UL37 (571-1123) was treated with N-methylacetamide; His; made in house; host or cells: E. coli BL21(DE3)
Experimental: […] Samples were then blocked with Iodoacetamide (Sigma) (50 mM) at room temperature for 1 h and subjected to Mass Spectrometry analysis (Poochon Scientific).

RIG-I [1] = experiment: Two-dimensional gel electrophoresis of RIG-I deamidation in cells; type: cell-based, human; settings: 293T/RIG-I cells transfected with UL37, DON 10 μM
Experimental: Cells (1×10^6) were lysed in 150 μl rehydration buffer (8 M Urea, 2% CHAPS, 0.5% IPG Buffer, 0.002% bromophenol blue) by three pulses of sonication and whole cell lysates were centrifuged at 20,000 g for 15 min. Supernatants were loaded to IEF strips for focusing with a program comprising: 20 V, 10 h (rehydration); 100 V, 1 h; 500 V, 1 h; 1000 V, 1 h; 2000 V, 1 h; 4000 V, 1 h; 8000 V, 4 h. After IEF, strips were incubated with SDS equilibration buffer (50 mM Tris-HCl [pH8.8], 6 M urea, 30% glycerol, 2% SDS, 0.001% Bromophenol Blue) containing 10 mg/ml DTT for 15 min and then SDS equilibration buffer containing 2-iodoacetamide for 15 min. Strips were washed with SDS-PAGE buffer, resolved by SDS-PAGE, and analyzed by immunoblotting.

RIG-I [2] = experiment: In vitro ATPase activity assay; type: biochemical, human; settings: purified RIG-I proteins; for ATPase activity kcat: at physiological ATP concentrations; for ability to hydrolyze ATP: with or without 5′ppp-RNA
Experimental: (§1) Purified RIG-I or RIG-I mutants were incubated with 5′-ppp-dsRNA (Invivogen) at 37° C. for 20 min in ATPase reaction buffer (50 mM Tris-HCl, pH 7.5, 2.5 mM MgCl2, and ATP. Released phosphates were measured using a PiColorLock™ phosphate detection reagent (Innova Biosciences). For reactions with varying concentrations of ATP, the concentrations of RIG-I proteins and RNA were 20 nM and 80 nM, respectively. For reactions with varying concentrations of the RNA, the concentrations of RIG-I proteins and ATP were 20 nM and 500 μM, respectively.
as §1, with “ATP).” for “ATP.”

HSV-1 = HSV-1 plaque assay in HEK293 cells stably expressing RIG-I wild-type or mutants; type: cell-based; settings: HEK293 stable cells, HSV-1 MOI=0.5
[3] = system: 5′-triphosphate 19mer dsRNA; experiment: RNA electrophoresis mobility shift assay (EMSA); type: binding; settings: 32P-labeled 5′-triphosphate 19mer dsRNA
Experimental: RNA EMSA was performed as previously described (Takahasi et al., 2008). 5′-ppp-dsRNA and control dsRNA were purchased from Invivogen and bottom strands were labeled with γ-[P^32]ATP by T4 polynucleotide kinase (NEB). Purified RIG-I and RIG-I mutants were incubated with dsRNA at room temperature for 15 min. Binding buffer contains 20 mM Tris-HCl (pH=8.0), 1.5 mM MgCl2 and 1.5 mM DTT. Unlabeled ppp-dsRNA was used as competitor at 500-fold in excess. The reaction mixtures were run on 5% native polyacrylamide gels at a constant voltage of 200 V. Gels were dried and subjected to phosphorimaging.

Molecule: O=C(CCl)NCO [CNM, 2-Chloro-N-(hydroxymethyl) acetamide]
- C819 labeled by CNM (UL37C (571-1123); CNM 1 μM): 38.3%
- C819 labeled by CNM (UL37C (571-1123); CNM 10 μM): 42.5%
- C850 labeled by CNM (UL37C (571-1123); CNM 1 and 10 μM): < 10%

Molecule: [N-]=[N+]=CC(=O)CC[C@H](N)C(=O)O [DON, 6-diazo-5-oxo-L-norleucine, reference compound]
- UL37-induced RIG-I deamidation in cells (RIG-I [1]): inhibited RIG-I deamidation

B1: RIG-I-WT: wild-type RIG-I polypeptide, SEQ ID NO. 3 (protein, listed as Homo sapiens)
chain: MTTEQRRSLQAFQDYIRKTLDPTYILSYMAPWFREEEVQYIQAEKNNKGPMEAATLFLKFLLELQEEGWFRGFLDALDHAGYSGLYEAIESWDFKKIEKLEEYRLLLKRLQPEFKTRIIPTDIISDLSECLINQECEEILQICSTKGMMAGAEKLVECLLRSDKENWPKTLKLALEKERNKFSELWIVEKGIKDVETEDLEDKMETSDIQIFYQEDPECQNLSENSCPPSEVSDTNLYSPFKPRNYQLELALPAMKGKNTIICAPTGCGKTFVSLLICEHHLKKFPQGQKGKVVFFANQIPVYEQQKSVFSKYFERHGYRVTGISGATAENVPVEQIVENNDIIILTPQILVNNLKKGTIPSLSIFTLMIFDECHNTSKQHPYNMIMFNYLDQKLGGSSGPLPQVIGLTASVGVGDAKNTDEALDYICKLCASLDASVIATVKHNLEELEQVVYKPQKFFRKVESRISDKFKYIIAQLMRDTESLAKRICKDLENLSQIQNREFGTQKYEQWIVTVQKACMVFQMPDKDEESRICKALFLYTSHLRKYNDALIISEHARMKDALDYLKDFFSNVRAAGFEEIEQDLTQRFEEKLQELESVSRDPSNENPKLEDLCFILQEEYHLNPETITILFVKTRALVDALKNWIEGNPKLSFLKPGILTGRGKTNQNTGMTLPAQKCILDAFKASGDHNILIATSVADEGIDIAQCNLVILYEYVGNVIKMIQTRGRGRARGSKCFLLTSNAGVIEKEQINMYKEKMMNDSILRLQTWDEAVFREKILHIQTHEKFIRDSQEKPKPVPDKENKKLLCRKCKALACYTADVRVIEECHYTVLGDAFKECFVSRPHPKPKQFSSFEKRAKIFCARQNCSHDWGIHVKYKTFEIPVIKIESFVVEDIATGVQTLYSKWKDFHFEKIPFDPAEMSK
- ATPase activity kcat (RIG-I [2]): 944 s⁻¹
- reduction of HSV-1 replication / titer (HSV-1): ~50%

B2: RIG-I-DD (protein)
chain: MTTEQRRSLQAFQDYIRKTLDPTYILSYMAPWFREEEVQYIQAEKNNKGPMEAATLFLKFLLELQEEGWFRGFLDALDHAGYSGLYEAIESWDFKKIEKLEEYRLLLKRLQPEFKTRIIPTDIISDLSECLINQECEEILQICSTKGMMAGAEKLVECLLRSDKENWPKTLKLALEKERNKFSELWIVEKGIKDVETEDLEDKMETSDIQIFYQEDPECQNLSENSCPPSEVSDTNLYSPFKPRNYQLELALPAMKGKNTIICAPTGCGKTFVSLLICEHHLKKFPQGQKGKVVFFANQIPVYEQQKSVFSKYFERHGYRVTGISGATAENVPVEQIVENNDIIILTPQILVNNLKKGTIPSLSIFTLMIFDECHNTSKQHPYNMIMFNYLDQKLGGSSGPLPQVIGLTASVGVGDAKNTDEALDYICKLCASLDASVIATVKHNLEELEQVVYKPQKFFRKVESRISDKFKYIIAQLMRDTESLAKRICKDLEDLSQIQNREFGTQKYEQWIVTVQKACMVFQMPDKDEESRICKALFLYTSHLRKYDDALIISEHARMKDALDYLKDFFSNVRAAGFEEIEQDLTQRFEEKLQELESVSRDPSNENPKLEDLCFILQEEYHLNPETITILFVKTRALVDALKNWIEGNPKLSFLKPGILTGRGKTNQNTGMTLPAQKCILDAFKASGDHNILIATSVADEGIDIAQCNLVILYEYVGNVIKMIQTRGRGRARGSKCFLLTSNAGVIEKEQINMYKEKMMNDSILRLQTWDEAVFREKILHIQTHEKFIRDSQEKPKPVPDKENKKLLCRKCKALACYTADVRVIEECHYTVLGDAFKECFVSRPHPKPKQFSSFEKRAKIFCARQNCSHDWGIHVKYKTFEIPVIKIESFVVEDIATGVQTLYSKWKDFHFEKIPFDPAEMSK
modifications: left off: small tags and cut ends
- ATPase activity kcat (RIG-I [2]): 32.6 s⁻¹
- ability to hydrolyze ATP (RIG-I [2]): completely lost its ability to hydrolyze ATP
- reduction of HSV-1 replication / titer (HSV-1): marginal effect
- RNA-binding (RIG-I:RNA complex formation) [3]: significantly impaired in forming the fast migrating RIG-I:RNA complex

B3: RIG-I-N495D (protein, UniProt O95786 1-925, looked up, variant N495D)
Antiviral innate immune …: MTTEQRRSLQAFQDYIRKTLDPTYILSYMAPWFREEEVQYIQAEKNNKGPMEAATLFLKFLLELQEEGWFRGFLDALDHAGYSGLYEAIESWDFKKIEKLEEYRLLLKRLQPEFKTRIIPTDIISDLSECLINQECEEILQICSTKGMMAGAEKLVECLLRSDKENWPKTLKLALEKERNKFSELWIVEKGIKDVETEDLEDKMETSDIQIFYQEDPECQNLSENSCPPSEVSDTNLYSPFKPRNYQLELALPAMKGKNTIICAPTGCGKTFVSLLICEHHLKKFPQGQKGKVVFFANQIPVYEQQKSVFSKYFERHGYRVTGISGATAENVPVEQIVENNDIIILTPQILVNNLKKGTIPSLSIFTLMIFDECHNTSKQHPYNMIMFNYLDQKLGGSSGPLPQVIGLTASVGVGDAKNTDEALDYICKLCASLDASVIATVKHNLEELEQVVYKPQKFFRKVESRISDKFKYIIAQLMRDTESLAKRICKDLEDLSQIQNREFGTQKYEQWIVTVQKACMVFQMPDKDEESRICKALFLYTSHLRKYNDALIISEHARMKDALDYLKDFFSNVRAAGFDEIEQDLTQRFEEKLQELESVSRDPSNENPKLEDLCFILQEEYHLNPETITILFVKTRALVDALKNWIEGNPKLSFLKPGILTGRGKTNQNTGMTLPAQKCILDAFKASGDHNILIATSVADEGIDIAQCNLVILYEYVGNVIKMIQTRGRGRARGSKCFLLTSNAGVIEKEQINMYKEKMMNDSILRLQTWDEAVFREKILHIQTHEKFIRDSQEKPKPVPDKENKKLLCRKCKALACYTADVRVIEECHYTVLGDAFKECFVSRPHPKPKQFSSFEKRAKIFCARQNCSHDWGIHVKYKTFEIPVIKIESFVVEDIATGVQTLYSKWKDFHFEKIPFDPAEMSK
- ability to hydrolyze ATP (RIG-I [2]): basal or no ATPase activity
- RNA-binding (RIG-I:RNA complex formation) [3]: comparable RNA-binding affinity to RIG-I-WT

B4: RIG-I-N549D (protein, UniProt O95786 1-925, looked up, variant N549D)
Antiviral innate immune …: MTTEQRRSLQAFQDYIRKTLDPTYILSYMAPWFREEEVQYIQAEKNNKGPMEAATLFLKFLLELQEEGWFRGFLDALDHAGYSGLYEAIESWDFKKIEKLEEYRLLLKRLQPEFKTRIIPTDIISDLSECLINQECEEILQICSTKGMMAGAEKLVECLLRSDKENWPKTLKLALEKERNKFSELWIVEKGIKDVETEDLEDKMETSDIQIFYQEDPECQNLSENSCPPSEVSDTNLYSPFKPRNYQLELALPAMKGKNTIICAPTGCGKTFVSLLICEHHLKKFPQGQKGKVVFFANQIPVYEQQKSVFSKYFERHGYRVTGISGATAENVPVEQIVENNDIIILTPQILVNNLKKGTIPSLSIFTLMIFDECHNTSKQHPYNMIMFNYLDQKLGGSSGPLPQVIGLTASVGVGDAKNTDEALDYICKLCASLDASVIATVKHNLEELEQVVYKPQKFFRKVESRISDKFKYIIAQLMRDTESLAKRICKDLENLSQIQNREFGTQKYEQWIVTVQKACMVFQMPDKDEESRICKALFLYTSHLRKYDDALIISEHARMKDALDYLKDFFSNVRAAGFDEIEQDLTQRFEEKLQELESVSRDPSNENPKLEDLCFILQEEYHLNPETITILFVKTRALVDALKNWIEGNPKLSFLKPGILTGRGKTNQNTGMTLPAQKCILDAFKASGDHNILIATSVADEGIDIAQCNLVILYEYVGNVIKMIQTRGRGRARGSKCFLLTSNAGVIEKEQINMYKEKMMNDSILRLQTWDEAVFREKILHIQTHEKFIRDSQEKPKPVPDKENKKLLCRKCKALACYTADVRVIEECHYTVLGDAFKECFVSRPHPKPKQFSSFEKRAKIFCARQNCSHDWGIHVKYKTFEIPVIKIESFVVEDIATGVQTLYSKWKDFHFEKIPFDPAEMSK
- ability to hydrolyze ATP (RIG-I [2]): basal or no ATPase activity
